These are literature values, as cited in paper PMC3094721.

Usually Ki stands for a measure of affinity in units of concentration, obtained from inhibition or displacement.

This data set has as its target ChemR23 (Homo sapiens) (UniProt Q99788). The data set is described as follows: radioligand.

Chain of chemerin peptide (Q99969 21-157): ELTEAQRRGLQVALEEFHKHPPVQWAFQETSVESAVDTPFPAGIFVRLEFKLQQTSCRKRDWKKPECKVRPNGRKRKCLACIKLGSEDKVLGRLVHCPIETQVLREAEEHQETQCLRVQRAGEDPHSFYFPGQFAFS
Chain of ChemR23 (Homo sapiens) (Q99788 whole entry): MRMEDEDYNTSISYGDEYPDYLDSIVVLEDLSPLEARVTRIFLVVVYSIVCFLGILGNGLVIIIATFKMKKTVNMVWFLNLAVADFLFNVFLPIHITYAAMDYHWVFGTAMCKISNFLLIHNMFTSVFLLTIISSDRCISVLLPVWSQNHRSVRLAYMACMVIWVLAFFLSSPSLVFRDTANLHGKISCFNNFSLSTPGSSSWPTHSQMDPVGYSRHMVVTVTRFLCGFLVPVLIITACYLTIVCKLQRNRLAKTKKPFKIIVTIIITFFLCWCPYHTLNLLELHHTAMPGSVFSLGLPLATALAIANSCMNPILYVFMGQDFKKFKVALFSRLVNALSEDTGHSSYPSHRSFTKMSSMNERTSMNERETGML

Regarding chemerin peptide (from UniProt Q99969), the inhibition constant Ki was 429 nM.
